3 molecules from doi:10.1101/2023.05.01.538945, “Structural basis of Gabija anti-phage defense and viral immune evasion” (bioRxiv, 2023) can be followed below.

The chains are these.
B2: Bacillus cereus VD045 GajA (Gabija protein A), co-expressed with GajB, tag removed (enzyme)
chain: KFSNITIKNFRNFEKVNINLDNKNVIFGMNDIGKTNFLYALRFLLDKEIRKFGFNKSDYHKHDTSKKIEIILTLDLSNYEKDEDTKKLISVVKGARTSANADVFYIALESKYDDKELYGNIILKWGSELDNLIDIPGRGNINALDNVFKVIYINPLVDLDKLFAQNKKYIFEESQGNESDEGILNNIKSLTDQVNQQIGEMTIIKGFQQEITSEYRSLKKEEVSIELKSEMAIKGFFSDIIPYIKKDGDSNYYPTSGDGRRKMLSYSIYNYLAKKKYEDKIVIYLIEEPEISLHRSMQIALSKQLFEQSTYKYFFLSTHSPELLYEMDNTRLIRVHSTEKVVCSSHMYNVEEAYGSVKKKLNKALSSALFAERVLLIEGPSEKILFEKVLDEVEPEYELNGGFLLEVGGTYFNHYVCTLNDLGITHIIKTDNDLKSKKGKKGVYELLGLNRCLNLLGRENLDEITIDIPEDIKGKKKKERLNERKKEIFKQYKNEVGEFLGERIYLSEIDLENDLYSAIGESMKRIFENEDPVHYLQKSKLFNMVELVNNLSTKDCFDVFEHEKFACLKELVGSDRG
notes: GajA (Gabija protein A), Class 2 OLD nuclease, Bacillus cereus VD045, IMG ID 2519684552; codon-optimized synthetic gene; GajA chain of the GajAB crystal structure; The 5xGS linker probably stays on GajA after SENP2 cleavage (surmise); also called BcGajA; source: E. coli BL21(DE3) or BL21(DE3)-RIL, co-expressed with GajB, purified (Ni-NTA, SUMO2 cleavage by hSENP2, SEC); not shown: …

Data set [1] has as its target B2. Briefly: crystal structure; GajAB co-expressed in E. coli and purified as a complex; hanging drop, 18°C, 100 mM HEPES-NaOH pH 7.5, 2.4% PEG-400, 2.2 M ammonium sulfate; 3.0 Å. As to conditions: both partners purified.
Data set [2] concerns the molecule itself. Described as above.
Data set [3] concerns the molecule itself. Briefly: SEC; 16/600 S200 (Superdex 200); purified recombinant BcGajA alone, BcGajB alone and the co-expressed BcGajAB complex.

B1: Bacillus cereus VD045 GajB (Gabija protein B), untagged, co-expressed with GajA (enzyme)
chain: SREQIIKDGGNILVTAGAGSGKTTILVSKIEADLKENKTHYSIAAVTFTNKAAKEIEGRLGYSSRGNFIGTNDGFVESEIIRPFIKDAFGNDYPDNFTAEYFDNQFASYDKGLQVLKYQNILGTYSNPKKNFKFQLALDILKKSLVARQYIFSKYFKIFIDEYQDSDKDMHNLFMYLKDQLKIKLFIVGDPKQSIYIWRGAEPENFNGLIENSTDFNKYHLTSNFRCCQDIQNYSNLFNEETRSLIKEKNEVQNVISIADDMPISDILLKLTEEKQVLNIEAELVILVRRRNQAIEIMKELNEEGFNFIFIPQTPLDRATPNATLLKEVIKYVKNDRYSIYDLAAEIVGNLSSREIKEIQKIINELLVPNINQVLINQVLINLFAKLEITLDTREITAFTEVMMTNEFDIAFDTNEYLHKIFTVHSAKGLEFNQVIITASDYNVHYNRDTNEHYVATTRAKDKLIVIMDNKKYSDYIETLMKELKIKNIIKSI
notes: GajB (Gabija protein B), Superfamily 1A helicase, Bacillus cereus VD045, IMG ID 2519684553; codon-optimized synthetic gene; GajB chain of the GajAB crystal structure and of the GajAB-Gad1 cryo-EM structure; also called BcGajB
B1: the “stoichiometry N” value in data set [1] is 1 GajB per GajA (4:4). On to B2, for which the “stoichiometry N” value in data set [2] is 4.

B3: Bacillus cereus VD045 GajA alone, C-terminal 6xHis (enzyme)
chain: KFSNITIKNFRNFEKVNINLDNKNVIFGMNDIGKTNFLYALRFLLDKEIRKFGFNKSDYHKHDTSKKIEIILTLDLSNYEKDEDTKKLISVVKGARTSANADVFYIALESKYDDKELYGNIILKWGSELDNLIDIPGRGNINALDNVFKVIYINPLVDLDKLFAQNKKYIFEESQGNESDEGILNNIKSLTDQVNQQIGEMTIIKGFQQEITSEYRSLKKEEVSIELKSEMAIKGFFSDIIPYIKKDGDSNYYPTSGDGRRKMLSYSIYNYLAKKKYEDKIVIYLIEEPEISLHRSMQIALSKQLFEQSTYKYFFLSTHSPELLYEMDNTRLIRVHSTEKVVCSSHMYNVEEAYGSVKKKLNKALSSALFAERVLLIEGPSEKILFEKVLDEVEPEYELNGGFLLEVGGTYFNHYVCTLNDLGITHIIKTDNDLKSKKGKKGVYELLGLNRCLNLLGRENLDEITIDIPEDIKGKKKKERLNERKKEIFKQYKNEVGEFLGERIYLSEIDLENDLYSAIGESMKRIFENEDPVHYLQKSKLFNMVELVNNLSTKDCFDVFEHEKFACLKELVGSDRG
notes: GajA, Bacillus cereus VD045, IMG ID 2519684552; also called BcGajA; source: E. coli BL21(DE3) or BL21(DE3)-RIL, purified (Ni-NTA, SEC); for the Ni-NTA co-purification co-expressed with Shewanella phage 1/4 Gad1; not shown: 6xHis, C-terminal, kept
Take B3: the “stoichiometry N” value in data set [3] worked out at 4.
